Reference: US20100273676A1 (GENERAL HOSPITAL, published 2010)
Ends that are not written are not given here. * marks the point of attachment. FITC = O=C1OC2(c3ccc(O)cc3Oc3cc(O)ccc32)c2ccc(NC(=S)*)cc21

Experiments:
[1] = target: T1, GST-tagged CgGal11Ap KIX domain (amino acids 1-86) (C. glabrata, UniProt P08515 1-218 = GST); experiment: fluorescence anisotropy/polarization, FITC peptide with increasing GST-CgGal11Ap KIX
[2] = target: GST (glutathione S-transferase) (UniProt P08515 1-218 = GST); experiment: fluorescence polarization
Chain of GST (glutathione S-transferase) (P08515 whole entry, the tested form may be a part): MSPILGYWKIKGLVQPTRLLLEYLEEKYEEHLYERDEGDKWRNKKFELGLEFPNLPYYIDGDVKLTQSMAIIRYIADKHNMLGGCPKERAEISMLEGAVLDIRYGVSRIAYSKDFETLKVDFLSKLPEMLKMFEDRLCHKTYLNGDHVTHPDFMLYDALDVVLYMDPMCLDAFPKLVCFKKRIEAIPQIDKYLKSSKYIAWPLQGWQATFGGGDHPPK

[3] = target: T1, GST-tagged CgGal11Ap KIX domain (amino …); experiment: fluorescence polarization, salt and pH adjusted
[4] = target: T1, GST-tagged CgGal11Ap KIX domain (amino …); experiment: fluorescence polarization, FITC peptide with increasing GST-CgGal11Ap KIX

T1 sequence (P08515 whole entry, the tested form may be a part): as above

| Binder | Kd [1] | binding result [2] | Kd [3] | Kd [4] |
| --- | --- | --- | --- | --- |
| {FITC}-LYNSLWGDLFSDVYL (also called short Fluorescein-tagged CgPdr1pAD peptide) [Fluorescein-conjugated 15-amino acid CgPdr1pAD peptide (FITC-LYNSLWGDLFSDVYL)] | ~210000 nM | – | – | – |
| {FITC}-LGTLDEFVNKGDLNELYNSLWGDLFSDVYL (also called FITC-labled-CgPdr1pAD-30; Fluorescein-tagged CgPdr1pAD-30 peptide) [FITC-CgPdr1pAD-30 (FITC-LGTLDEFVNKGDLNELYNSLWGDLFSDVYL)] | ~2000 nM | no binding | ~700 nM | ~780 nM |
